Holding throughout (test): AUC
Assay [1] deals with bacteriophage λ terminase protomer (TerL•TerS2), wild type (bacteriophage λ) (UniProt P03708).
The target of assay [2] is T1, bacteriophage λ terminase large subunit TerL^λ, wild type (bacteriophage λ, UniProt P03708 1-641).
T1 sequence (looked up): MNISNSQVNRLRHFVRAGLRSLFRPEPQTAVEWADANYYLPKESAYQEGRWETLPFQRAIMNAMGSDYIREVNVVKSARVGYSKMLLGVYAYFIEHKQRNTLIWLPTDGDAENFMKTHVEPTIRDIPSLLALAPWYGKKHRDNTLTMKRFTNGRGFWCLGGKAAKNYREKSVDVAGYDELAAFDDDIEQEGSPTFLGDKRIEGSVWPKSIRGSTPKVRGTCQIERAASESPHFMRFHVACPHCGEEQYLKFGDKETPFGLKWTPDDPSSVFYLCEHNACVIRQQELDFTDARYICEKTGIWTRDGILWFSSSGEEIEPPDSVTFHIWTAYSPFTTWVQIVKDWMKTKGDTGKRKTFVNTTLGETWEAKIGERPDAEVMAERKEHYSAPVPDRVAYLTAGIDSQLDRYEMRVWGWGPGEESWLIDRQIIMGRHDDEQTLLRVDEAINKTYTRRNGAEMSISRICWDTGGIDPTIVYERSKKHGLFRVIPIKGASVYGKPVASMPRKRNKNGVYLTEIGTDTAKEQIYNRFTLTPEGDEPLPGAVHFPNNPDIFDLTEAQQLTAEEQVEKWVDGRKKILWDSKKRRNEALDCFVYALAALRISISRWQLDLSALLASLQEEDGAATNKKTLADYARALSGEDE

In assay [3] the target is T2, bacteriophage λ terminase large subunit TerL^λ-E179A (bacteriophage λ, UniProt P03708 1-641, E179A).
T2 sequence (looked up): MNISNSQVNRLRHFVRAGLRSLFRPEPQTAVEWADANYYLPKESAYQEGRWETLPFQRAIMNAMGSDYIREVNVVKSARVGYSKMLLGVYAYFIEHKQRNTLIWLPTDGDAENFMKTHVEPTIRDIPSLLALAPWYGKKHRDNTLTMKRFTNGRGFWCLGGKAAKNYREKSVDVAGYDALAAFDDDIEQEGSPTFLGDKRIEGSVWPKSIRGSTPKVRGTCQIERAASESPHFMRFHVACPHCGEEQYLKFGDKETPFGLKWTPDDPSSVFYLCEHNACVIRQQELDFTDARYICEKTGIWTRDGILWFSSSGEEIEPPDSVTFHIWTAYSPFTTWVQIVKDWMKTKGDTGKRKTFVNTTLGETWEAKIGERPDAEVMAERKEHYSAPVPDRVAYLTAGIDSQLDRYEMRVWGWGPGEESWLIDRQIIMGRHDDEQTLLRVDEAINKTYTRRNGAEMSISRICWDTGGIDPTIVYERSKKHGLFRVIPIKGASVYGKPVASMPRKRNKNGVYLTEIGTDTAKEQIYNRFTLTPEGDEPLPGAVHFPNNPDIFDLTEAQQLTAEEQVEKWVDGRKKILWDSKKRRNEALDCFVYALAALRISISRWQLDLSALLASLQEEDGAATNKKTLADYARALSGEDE

For assay [4], the target named is T3, bacteriophage λ terminase large subunit TerL^λ-E179Q (bacteriophage λ, UniProt P03708 1-641, E179Q).
T3 sequence (looked up): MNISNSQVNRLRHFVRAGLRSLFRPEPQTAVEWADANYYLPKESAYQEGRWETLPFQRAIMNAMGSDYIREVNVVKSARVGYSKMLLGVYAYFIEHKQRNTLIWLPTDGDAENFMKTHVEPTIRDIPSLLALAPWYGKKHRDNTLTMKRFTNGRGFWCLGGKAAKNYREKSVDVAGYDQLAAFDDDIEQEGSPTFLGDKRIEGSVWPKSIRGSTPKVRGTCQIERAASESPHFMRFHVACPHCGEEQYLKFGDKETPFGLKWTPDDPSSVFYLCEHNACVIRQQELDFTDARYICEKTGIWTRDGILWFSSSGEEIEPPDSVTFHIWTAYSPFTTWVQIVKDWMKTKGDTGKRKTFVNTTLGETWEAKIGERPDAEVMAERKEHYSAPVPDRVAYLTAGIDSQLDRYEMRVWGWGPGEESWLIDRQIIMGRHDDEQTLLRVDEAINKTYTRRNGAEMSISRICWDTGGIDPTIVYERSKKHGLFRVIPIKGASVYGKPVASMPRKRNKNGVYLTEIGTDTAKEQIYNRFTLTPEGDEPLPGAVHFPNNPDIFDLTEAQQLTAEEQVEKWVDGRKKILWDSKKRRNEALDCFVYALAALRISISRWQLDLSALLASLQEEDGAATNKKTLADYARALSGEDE

Broadly, the stoichiometry N is the number of molecules, sites or subunits per partner or assembly. In assay [1], “bacteriophage λ terminase protomer (TerL•TerS2), wild type (from UniProt P03708 1-641; P03707 1-181) (complex)” returned a stoichiometry N of 4.

B1: bacteriophage λ terminase small subunit TerS (natural protein, UniProt P03707 1-181, looked up)
chain: MEVNKKQLADIFGASIRTIQNWQEQGMPVLRGGGKGNEVLYDSAAVIKWYAERDAEIENEKLRREVEELRQASEADLQPGTIEYERHRLTRAQADAQELKNARDSAEVVETAFCTFVLSRIAGEIASILDGLPLSVQRRFPELENRHVDFLKRDIIKAMNKAAALDELIPGLLSEYIEQSG
Turning to B1, the binding result in assay [2], in assay [3] and in assay [4] was “binds” each time.

Source of the values: article PMC6379665 (Nucleic Acids Research, 2018).
